Measured values as given in patent publication US8202696B2, “Means for use in treating diseases correlated with or caused by non-physiological levels of microtubule-associated PP2Ac” (Max-Planck-Gessellschaft zur Forderung der Wissenschaften …, priority 2002, dated 2012).
“Also recorded” adds a separate entry of the source.

Tests used:
Format in all cases: cell-based
Gli3 [1] = assay: Localization of overexpressed GFP-tagged Gli3 in HeLa cells; conditions: GFP-tagged Gli3-overexpressing HeLa cells
Protocol: 1×10^5 HELA cells per well of a 6-well plate were transfected with Qiagen Polyfect transfection reagent according to the manufacturer's instructions. The ratio of the amount of DNA to the amount of polyfect transfection reagent was 3 μg DNA/10 μl Polyfect. Constructs used for expression in HELA were the following: GFP-GLI3 (aa 18-1549), GLI3-GFP (aa 1-1522), MYC-GLI3 (aa 18-1596), FLAG-GLI3 (aa18-1596), MYC-B-BOX1 (aa 110-167 of the MID1 protein), ALPHA4-V5 (aa 1-339). 24 h after transfection immunofluorescence was performed. GFP-constructs were treated as described in Schweiger et al., 1999. Immunofluorescence with MYC-tagged and FLAG-tagged constructs was done according to Trockenbacher et al., 2001. FLAG-tagged constructs were detected with anti-FLAG-antibody diluted 1:500, the secondary antibody FITC-antimouse was diluted 1:1000. For MYC-tagged constructs anti-MYC-antibody 1:300 and CY3-antirabbit 1:1000 were used. […]
Overexpressed Gli3 is predominantly localized in the nucleus (FIG. 10, top left).

patched gene = assay: Patched-specific semiquantitative RT-PCR of HeLa cells; conditions: compared to mock-transfected cells
Protocol: One of the most important targets of the Gli3 transcription factor is the patched gene. In order to analyse HeLa cells for Gli3 activity after treatment with the different molecules, semiquantitative RT-PCR of cells overexpressing the B-Box1 and the α4 protein was carried out (FIG. 13). HeLa cells have previously been tested for Gli3-, Gli1 (another target of the Gli3 transcription factor) and patched-expression.

Gli3 [2] = assay: Localization of GFP-GLI3 in cultured U373MG cells; conditions: 24 hours after transfection, 100 cells counted
Protocol: COS7-HELA- and U373MG-cells were transfected using PolyFect Transfection Reagent (Qiagen, cat. no. 301107) according to the manufacturer's instructions. Gli3 cDNA was cloned into pEGFP-C1 and pEGFP-N3 vectors (Clontech) respectively. 100 transfected cells per experiment (Gli3-GFP, GFP-Gli3, Gli3-GFP+myc-MID1, GFP-Gli3+myc-MID1, Gli3-GFP+myc-BBox1, GFP-Gli3+myc-BBox1) were counted and analysed for Gli3 localization. Experiments were repeated twice. […] PCMV-Tag3 vector from Stratagene was used for myc-MID1 and myc-BBox1 overexpression.

PP2A [3] = assay: Cytosolic PP2A in 293 cells expressing MID1-V5, Western blot; conditions: 293 cells expressing MID1-V5 versus control cells
Protocol: Immunoprecipitation, western blotting and immunofluorescence. For COS7 cells, we lysed in IP1 buffer 8×10^6 cells transfected with pBudCE4 vector carrying the respective cDNAs. After preclearing the lysate with 50 μl protein A-agarose (slurry), we incubated supernatants with 2 μg anti-V5 overnight at 4° C. and then for 2 h with 75 μl (slurry) protein A-agarose. After three washes in IP1 buffer, we eluted the proteins with 1× Laemmli buffer at 95° C. MID1-V5 expression was optimal 48 h after doxycyclin removal from 293 tet-off cell lines. We then lysed cells in IP1 buffer and carried out immunoprecipitation with 2 μg anti-V5. We boiled proteins in 1×SDS-PAGE buffer, separated them on 10% and 12% SDS gels, blotted on PVDF membranes (Roche) and blocked and incubated with the respective primary antibody according to the manufacturer's instructions.
If so, increased MID1 expression should coincide with a decrease of cytosolic PP2A. To test this hypothesis, we analyzed lysates containing equal amounts of protein from 293 cells expressing MID1-V5 (FIG. 4a, lane1) and control cells (FIG. 4a, lane 3) by western blotting with a polyclonal antibody that detects the C subunit of PP2A.

PP2A [4] = assay: Ubiquitin-dependent regulation of PP2A in embryonic fibroblasts, Western blot; conditions: OS-derived cells
Protocol: Tissue culture. We obtained embryonic fibroblasts from the Max-Planck Institute for Cell Biology (Ladenburg, Germany) and purchased COS7 cells from the American Type Culture Collection (ATCC). Establishment of an embryonic fibroblast cell line from an OS-affected fetus has been described previously^4. We transfected COS7 cells following the Clontech protocol using LipofectACE. Expression was optimal 24-48 h after transfection. […] We determined integration copy number by Southern blot analysis. […]
For proteasome inhibition, we incubated embryonic fibroblasts with varying concentrations (10-50 μM) of LLnL (Sigma) for 2 h or with 10 μM of lactacystin (Sigma) for 5 h. […] Protein concentrations were determined with a Bradford assay. […]
For embryonic fibroblasts, we lysed 8×10^6 cells in IP1 buffer. […] We carried out densitometric quantification using the PCB computer program.
To obtain direct evidence for ubiquitin-dependent regulation of cytosolic PP2A, we analyzed amounts of cytosolic PP2A in embryonic fibroblasts, previously shown to contain large amounts of endogenous MID1 (ref. 2), after treatment with the proteasome inhibitor LLnL (FIG. 4b).

Molecule | Gli3 localization (Gli3 [1]) | patched message (patched gene) | GFP-GLI3 localization (Gli3 [2]) | Cytosolic phosphatase 2A level (PP2A [3]) | PP2Ac amount after transfection (PP2A [4])
α4: regulatory subunit of PP2A encoded by human IGBP1, overexpressed (protein, UniProt P78318 2-339, looked up, V5 tag, regulatory subunit of PP2A encoded by human IGBP1, overexpressed) Immunoglobulin-binding …: AAEDELQLPRLPELFETGRQLLDEVEVATEPAGSRIVQEKVFKGLDLLEKAAEMLSQLDLFSRNEDLEEIASTDLKYLLVPAFQGALTMKQVNPSKRLDHLQRAREHFINYLTQCHCYHVAEFELPKTMNNSAENHTANSSMAYPSLVAMASQRQAKIQRYKQKKELEHRLSAMKSAVESGQADDERVREYYLLHLQRWIDISLEEIESIDQEIKILRERDSSREASTSNSSRQERPPVKPFILTRNMAQAKVFGAGYPSLPTMTVSDWYEQHRKYGALPDQGIAKAAPEEFRKAAQQQEEQEEKEEEDDEQTLHRAREWDDWKDTHPRGYGNRQNMG | significant release of GFP-Gli3 to the nucleus | increased amount of PCR-product; also recorded: increase of the patched message | – | – | –
MID1: RING-finger protein that interacts with the α4 subunit of microtubule associated PP2Ac; overexpressed from cDNA (protein, left off: large carriers, overexpressed from cDNA) METLESELTCPICLELFEDPLLLPCAHSLCFNCAHRILVSHCATNESVESITAFQCPTCRHVITLSQRGLDGLKRNVTLQNIIDRFQKASVSGPNSPSETRRERAFDANTMTSAEKVLCQFCDQDPAQDAVKTCVTCEVSYCDECLKATHPNKKPFTGHRLIEPIPDSHIRGLMCLEHEDEKVNMYCVTDDQLICALCKLVGRHRDHQVAALSERYDKLKQNLESNLTNLIKRNTELETLLAKLIQTCQHVEVNASRQEAKLTEECDLLIEIIQQRRQIIGTKIKEGKVMRLRKLAQQIANCKQCIERSASLISQAEHSLKENDHARFLQTAKNITERVSMATASSQVLIPEINLNDTFDTFALDFSREKKLLECLDYLTAPNPPTIREELCTASYDTITVHWTSDDEFSVVSYELQYTIFTGQANVVSLCNSADSWMIVPNIKQNHYTVHGLQSGTKYIFMVKAINQAGSRSSEPGKLKTNSQPFKLDPKSAHRKLKVSHDNLTVERDESSSKKSHTPERFTSQGSYGVAGNVFIDSGRHYWEVVISGSTWYAIGLAYKSAPKHEWIGKNSASWALCRCNNNWVVRHNSKEIPIEPAPHLRRVGILLDYDNGSIAFYDALNSIHLYTFDVAFAQPVCPTFTVWNKCLTIITGLPIPDHLDCTEQLP | – | – | No change | downregulated | normalizes the amount of PP2Ac
